Results from article PMC10539048.

Biological target: filamentous actin polymerized from human platelet actin (human) (UniProt P60709)
Assay: co-sedimentation

Substance	percent reduction of actin-binding activity relative to WT [%]
human MAP2C T293E (from UniProt P11137-2 1-471) (natural protein)	43
human MAP2C T300E (from UniProt P11137-2 1-471) (natural protein)	43
